Data as given in publication PMC2718843.

Experiments:
[1] = target: gp120 from CC1/85 cl.7 (HIV-1)
[2] = target: gp120 from D1/85.16 cl.23 (HIV-1)
[3] = target: gp120 from CC101.19 cl.7 (HIV-1)
[4] = target: gp120 from CC1/85 cl.6 (HIV-1)

sCD4 (domain or fragment)
IC50 for inhibition of replication of the clonal virus in PBMC (p24 antigen); inhibits gp120-CD4 binding [1]: 0.1 µg/mL | IC50 for inhibition of replication of the clonal virus in PBMC (p24 antigen); inhibits gp120-CD4 binding [2]: 10 µg/mL | IC50 for inhibition of replication of the clonal virus in PBMC (p24 antigen); inhibits gp120-CD4 binding [3]: 0.1 µg/mL | IC50 for inhibition of replication of the clonal virus in PBMC (p24 antigen); inhibits gp120-CD4 binding [4]: > 25 µg/mL
